Laboratory results from patent US20260108618A1 (published 2026).

What was measured:
Conjugate 45b [1] = target: T1, Conjugate 45b (human, UniProt P0DOX5 203-448 = IgG part); experiment: ELISA
Conjugate 45b [2] = target: T1, Conjugate 45b; experiment: ELISA: conjugate coated on the plate, His-tagged receptor titrated, anti-His HRP detection

B1: human Fcγ RIIb (receptor)
chain: APPKAVLKLEPQWINVLQEDSVTLTCRGTHSPESDSIQWFHNGNLIPTHTQPSYRFKANNNDSGEYTCQTGQTSLSDPVHLTVLSEWLVLQTPHLEFQEGETIVLRCHSWKDKPLVKVTFFQNGKSKKFSRSDPNFSIPQANHSHSGDYHCTGNIGYTLYSSKPVTITVQAP
B1: binds (Conjugate 45b [1]).

B2: mouse FcγR2B/CD32b (receptor)
chain: THDLPKAVVKLEPPWIQVLKEDTVTLTCEGTHNPGNSSTQWFHNGRSIRSQVQASYTFKATVNDSGEYRCQMEQTRLSDPVDLGVISDWLLLQTPQLVFLEGETITLRCHSWRNKLLNRISFFHNEKSVRYHHYSSNFSIPKANHSHSGDYYCKGSLGRTLHQSKPVTITVQGPKSSR
notes: also called murine Fcγ RIIb
B2: binds (Conjugate 45b [1]).

B3: rat FcγR3A/CD16a (receptor)
chain: GLQKAVVNLDPEWVRVLEEDCVILRCQGTFSPEDNSTKWFHNKSLISHQDANYVIQSARVKDSGMYRCQTAFSALSDPVQLDVHADWLLLQTTKRLFQEGDPIRLRCHSWRNTPVFKVTYLQNGKGKKYFHRNSELSISKATHADSGSYFCRGIIGRNNISSASLQISIGDPTSPSSFLPWHQ
B3: binds (Conjugate 45b [2]).
